In US20260258115A1 (MAPP BIOPHARMACEUTICAL, published 2026):

molecular target: T1, RSV prefusion F (preF), subtype B (respiratory syncytial virus subtype B); test: BLI, IgG
T1 construct: also called Prefusion subtype B

Binder	Kd [nM]
ADI-24798 (antibody, V domains shown, full-length IgG) VH: EVQLLESGPGLVKPSETLSLTCTVSGGSISSYYWSWIRQPPGKGLEWIGYIYYSGSTNYNPSLKSRVTISVDTSKNQFSLKLSSVTAADTAVYYCARILGHCSGGSCYRIIDYWGQGTLVTVSS VL: not shown	5.27
ADI-24841 (antibody, V domains shown, full-length IgG) VH: QVQLVQSGAEVKKPGASVKVSCKASGYTFTSYAMHWVRQAPGQRLEWMGWINAGNGNTKYSQKFQGRVTITRDTSASTAYMELSSLRSEDTAVYYCARDGFPTNYDFWSGYSDDAFDIWGQGTMVTVSS VL: not shown	26.6
ADI-24854 (antibody, V domains shown, full-length IgG) VH: EVQLVESGGGLVKPGGSLRLSCAASGFTFSSYSMNWVRQAPGKGLEWVSSISSSSSYIYYADSVKGRFTISRDNAKNSLYLQMNSLRAEDTAVYYCARDRRFGELFYFDYWGQGTLVTVSS VL: QSVLTQPPSVSGAPGQRVTISCTGSSSNIGAGYDVHWYQQLPGTAPKLLIYGNSNRPSGVPDRFSGSKSGTSASLAITGLQAEDEADYYCQSYDSSLSGNWVFGGGTKLTVL	30.3
ADI-22756 (antibody, V domains shown, full-length IgG) VH: EVQLLESGGGVVQPGRSLRLSCVASGFTFSTYGVHWVRQAPGKGLEWVAVISYDGANKDYADSVKGRFTISRDNSKNTLYLQMNSLRAEDTAVYYCAKMITRVLPGGFDRWGQGTLVTVSS VL: EIVMTQSPGTLSLSPGERATLSCRASQSVSSAYLAWYQQKPGQAPRLLIYDASRRATGIPDRFSGSGSGTDFTLTISRLEPEDFAVYYCQQYGSSRFTFGQGTKVEIK	55.8
ADI-14363 (antibody, V domains shown, full-length IgG; also called Ab 31) VH: QVQLVESGGGLVKPGGSLRLSCAASGFTFSDYYMSWIRQAPGKGLEWVSYISGGGTYTKYADSVKGRFTISRDNAKNSVYLQMNSLRAEDTAVYYCARDVALVGWELRYGMDVWGQGTTVTVSS VL: ETTLTQSPGTLSLSPGERATLSCRARENVNSSYLAWYQQKPGQAPRLLIYGASSRATGIPDRFSGSGSGTDFTLTISRLEPEDFAVYYCQQYAISPWTFGQGTKVEIK	5.35
ADI-25491 (antibody, V domains shown, full-length IgG) VH: EVQLLESGPGLVKPSQTLSLTCTVSGGSISSGGYYWSWIRQHPGKGLEWIGYIYYSGSTYYNPSLKSRVTISVDTSKNQFSLKLSSVTAADTAVYYCAREVVPAAIRAGYYFDYWGQGTLVTVSS VL: not shown	21.9
ADI-14380 (antibody, V domains shown, full-length IgG; also called Ab 48) VH: QVQLVQSGAEVKKPGESLKISCKGSGYTFTSYWIGWVRQLPGKGLEWMGVIFPGDSDTRYSPSFQGQVTISADKSISTAYLQWSSLKAADTAMYYCARTRLGRGFYRFDSWGQGTLVTVSS VL: QSVLTQPPSVSAAPGQKVTISCSGSSSNIGNNYVSWYQQLPGTAPRLLIYENNERPSGIPDRFSGSKSGTSATLGITGLQTGDEADYYCATWDSGLSAGYVFGTGTKLTVL	10.8
ADI-25518 (antibody, V domains shown, full-length IgG) VH: not shown VL: QSVLIQPASVSGSPGQSITISCTGTSSDVGGYNYVSWYQQHPGKAPKLMIYDVSNRPSGVSNRFSGSKSGNTASLTISGLQAEDEADYYCSSYTSSSTLVFGGGTQLTVL	39.5

molecular target: RSV prefusion F (preF), subtype B (respiratory syncytial virus, subtype B); test: BLI, IgG

Binder	Kd [nM]
ADI-14402 (antibody, V domains shown, also called Ab 68) VH: QVQLVQSGAEVKKPGASVKVSCKTSGYTFTNYGISWVRQAPGQGLEWMGWISAYNGNRNYAQKLQGRVTMTTDTSTSTAYMELRSLRSDDTAVYYCAREPPVIAAGDFSHWGQGTLVTVSS VL: EIVLTQSPLSLPVTLGQPASISCRSSQSLVHSDANTYLSWFQQRPGQSPRRLIYKVSNRDSGVPDRFSGSGSGTDFTLKISRVEAEDVGVYYCMQGTHWPPDFGQGTRLEIK	0.416
ADI-14585 (antibody, V domains shown) VH: QVQLVQSGAEVKKPGASVKVSCKASGYTFANYGIGWVRQAPGQGLEWMGWISAYNGKTNYAQKFQGRVTMTTDTSTSTAYMELRSLRSDDTAVYYCAREPPVIAAGDFPHWGQGTLVTVSS VL: ETTLTQSPLSLPVTLGQPASISCRSSQSLEHSDLNTYLSWFQQRPGQSPRRLIYKVSNRDSGVPDRFSGSGSGTDFTLRISRVEAEDVGVYYCMQGTHWPPDFGQGTRLEIK	0.449
